Results published in the supplement of paper PMC10201428.
± gives the standard deviation of the averaged measurements.

Experiments:
[1] = tested on: VchCAST RNA-guided transposition machinery (E. coli BL21(DE3) host, lacZ target); test: relative integration efficiency (T-RL orientation) vs wild-type transposon end (log2 (normalized fold change)); transposon end mutated: right end (5 bp flank + 75 bp right end); higher = more efficient transposition
In short: (§1)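 Pools of 1549 left-end or 1849 right-end barcoded transposon variants were cloned into a pUC57 mini-transposon donor and co-transformed into E. coli BL21(DE3) with a T7-driven effector plasmid carrying a CRISPR array, tniQ-cas8-cas7-cas6 and tnsA-tnsB-tnsC. Plating used 0.1 mM IPTG at 37°C for 18 h, and input plasmids and genomic integration junctions were PCR-amplified for Illumina sequencing, with two biological output replicates and four reference barcodes. Relative integration efficiency is the log-transformed fold change of output over input barcode abundance, normalised to the reference barcodes.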

[2] = tested on: VchCAST RNA-guided transposition machinery (E. coli BL21(DE3) host, lacZ target); test: relative integration efficiency (T-LR orientation) vs wild-type transposon end (log2 (normalized fold change)); transposon end mutated: right end (5 bp flank + 75 bp right end); higher = more efficient transposition
In short: as §1

Sequence | relative integration efficiency (log2) [1] | relative integration efficiency (log2) [2]
ACATTTGTTGATACAACCATAAAATGATCATTACACCCATAAATTGATCATTATCACACCCATAAATTGATCTTGCCTCTGATCATAGTCAGACCAACATTGCTACGACCCGTATTCGCACCGACAC | -1.214 ± 0.0037 | -0.7415 ± 0.00084
ACATTTGTTGATACAACCATAAAATGATCATTACACCCATCAATTGATAATTATCACACCCAATTTAACTATAACGCTCTGATCATAGTCAGACCAACATTGCTACGACCCGTATTCGCACCGACAC | -2.98 ± 0.5 | 0.697 ± 0.18
ACATTTGTTGATACAACCATAAAATGATCATTACACCCATCAATTGATAATTATCACACCCCATTTAACTATAACGCTCTGATCATAGTCAGACCAACATTGCTACGACCCGTATTCGCACCGACAC | -2.76 ± 0.2 | 0.914 ± 0.34
ACATTTGTTGATACAACCATAAAATGATCATTACACCCATCAATTGATAATTATCCCACCCAATTTAACTATAACGCTCTGATCATAGTCAGACCAACATTGCTACGACCCGTATTCGCACCGACAC | -2.65 ± 0.42 | 0.874 ± 0.13
ACATTTGTTGATACAACCATAAAATGATCATTACACCCATCAATTGATAATTATCCCACCCCATTTAACTATAACGCTCTGATCATAGTCAGACCAACATTGCTACGACCCGTATTCGCACCGACAC | -2.65 ± 0.32 | 1.04 ± 0.071
ACATTTGTTGATACAACCATAAAATGATCATTACCCCCATAAATTGATAATTATCACACCCAATTTAACTATAACGCTCTGATCATAGTCAGACCAACATTGCTACGACCCGTATTCGCACCGACAC | -1.95 ± 0.25 | 1.59 ± 0.045
ACATTTGTTGATACAACCATAAAATGATCATTACCCCCATAAATTGATAATTATCACACCCCATTTAACTATAACGCTCTGATCATAGTCAGACCAACATTGCTACGACCCGTATTCGCACCGACAC | -1.23 ± 0.22 | 2.423 ± 0.013
ACATTTGTTGATACAACCATAAAATGATCATTACCCCCATAAATTGATAATTATCCCACCCAATTTAACTATAACGCTCTGATCATAGTCAGACCAACATTGCTACGACCCGTATTCGCACCGACAC | -2.11 ± 0.51 | 1.58 ± 0.2
ACATTTGTTGATACAACCATAAAATGATCATTACCCCCATAAATTGATAATTATCCCACCCCATTTAACTATAACGCTCTGATCATAGTCAGACCAACATTGCTACGACCCGTATTCGCACCGACAC | -1.91 ± 0.36 | 1.86 ± 0.02
ACATTTGTTGATACAACCATAAAATGATCATTACCCCCATCAATTGATAATTATCACACCCAATTTAACTATAACGCTCTGATCATAGTCAGACCAACATTGCTACGACCCGTATTCGCACCGACAC | -3.35 ± 0.24 | -0.291 ± 0.3
ACATTTGTTGATACAACCATAAAATGATCATTACCCCCATCAATTGATAATTATCACACCCCATTTAACTATAACGCTCTGATCATAGTCAGACCAACATTGCTACGACCCGTATTCGCACCGACAC | -3.74 ± 0.21 | -0.533 ± 0.18
ACATTTGTTGATACAACCATAAAATGATCATTACCCCCATCAATTGATAATTATCCCACCCAATTTAACTATAACGCTCTGATCATAGTCAGACCAACATTGCTACGACCCGTATTCGCACCGACAC | -3.71 ± 0.29 | 0.227 ± 0.14
ACATTTGTTGATACAACCATAAAATGATCATTACCCCCATCAATTGATAATTATCCCACCCCATTTAACTATAACGCTCTGATCATAGTCAGACCAACATTGCTACGACCCGTATTCGCACCGACAC | -3.97 ± 0.23 | -0.338 ± 0.22
ACATTTGTTGATACAACCATAAAATGATCATTCACCCATAAATTGATAATTATCACACCCACATTTAACTATAACGCTCTGATCATAGTCAGACCAACATTGCTACGACCCGTATTCGCACCGACAC | -3.25 ± 0.26 | 0.654 ± 0.11
ACATTTGTTGATACAACCATAAAATGATCATTCACCCCTAAATTGATAATTATCACACCCACATTTAACTATAACGCTCTGATCATAGTCAGACCAACATTGCTACGACCCGTATTCGCACCGACAC | -4.31 ± 0.082 | -0.712 ± 0.069
ACATTTGTTGATACAACCATAAAATGATCCGGACACCCATAAATTGATAATTATCACACCCATAAATTGATATTGCCTCTGATCATAGTCAGACCAACATTGCTACGACCCGTATTCGCACCGACAC | -1.23 ± 0.15 | -0.898 ± 0.013
ACATTTGTTGATACAACCATAAAATGATCCGGCACAAACGCCCGGTCGCCGGCGACACAAACGCCCGGTCGCGGTAAGAGGATCATAGTCAGACCAACATTGCTACGACCCGTATTCGCACCGACAC | -2.68 ± 0.12 | 0.37 ± 0.064
ACATTTGTTGATACAACCATAAAATGATCCGGCCACCCATAAATTGATCCGGCTCACACCCATAAATTGATCGGTACTCTGATCATAGTCAGACCAACATTGCTACGACCCGTATTCGCACCGACAC | -2.73 ± 0.41 | -0.827 ± 0.14

Sequence | relative integration efficiency (log2) [1] | relative integration efficiency (log2) [2]
ACATTTGTTGATACAACCATAAAATGATCCTTACACCCATAAATTGATAATTATCACACCCATAAATTGATATTGCCTCTGATCATAGTCAGACCAACATTGCTACGACCCGTATTCGCACCGACAC | -1.03 ± 0.14 | -0.545 ± 0.46
ACATTTGTTGATACAACCATAAAATGATTATTACACCCATAAATTGATAATAATGACACCGAATTTAACTATAACGCTCTGATCATAGTCAGACCAACATTGCTACGACCCGTATTCGCACCGACAC | -0.616 ± 0.36 | 2.95 ± 0.061
ACATTTGTTGATACAACCATAAAATGATTATTACACCCATAAATTGATAATGATGACACCGAATTTAACTATAACGCTCTGATCATAGTCAGACCAACATTGCTACGACCCGTATTCGCACCGACAC | -1.31 ± 0.35 | 2.38 ± 0.12
ACATTTGTTGATACAACCATAAAATGATTATTACACCCATAAATTGATAATTGTGACACCGAATTTAACTATAACGCTCTGATCATAGTCAGACCAACATTGCTACGACCCGTATTCGCACCGACAC | -1.18 ± 0.23 | 2.3 ± 0.095
ACATTTGTTGATACAACCATAAAATGATTATTACACCCATAAATTGATTATTATCACACCCATAAATTGATTTTGCCTCTGATCATAGTCAGACCAACATTGCTACGACCCGTATTCGCACCGACAC | -0.91 ± 0.14 | 0.0804 ± 0.34
ACATTTGTTGATACAACCATAAAATGATTATTACACCCATTAATTGATAATTATCACACCCAATTTAACTATAACGCTCTGATCATAGTCAGACCAACATTGCTACGACCCGTATTCGCACCGACAC | -1.4 ± 0.34 | 2.31 ± 0.036
ACATTTGTTGATACAACCATAAAATGATTTAAACACCCATAAATTGATAATTATCACACCCATAAATTGATATTGCCTCTGATCATAGTCAGACCAACATTGCTACGACCCGTATTCGCACCGACAC | -0.3814 ± 0.0024 | -0.234 ± 0.29
ACATTTGTTGATACAACCATAAAATGATTTAATCACCCATAAATTGATTTAATTCACACCCATAAATTGATTAACGCTCTGATCATAGTCAGACCAACATTGCTACGACCCGTATTCGCACCGACAC | -1.13 ± 0.18 | -0.00841 ± 0.34
ACATTTGTTGATACAACCATAAAATGATTTTTACACCCATAAATTGATAATTATCACACCCATAAATTGATATTGCCTCTGATCATAGTCAGACCAACATTGCTACGACCCGTATTCGCACCGACAC | -0.483 ± 0.081 | 0.183 ± 0.26
ACATTTGTTGATACAACCATAAAATGCGAATTACACCCATAAATTGATAATTATCACACCCATAAATTGATATTGCCTCTGATCATAGTCAGACCAACATTGCTACGACCCGTATTCGCACCGACAC | -0.945 ± 0.22 | -0.35 ± 0.095
ACATTTGTTGATACAACCATAAAATGCGCCGGCACAAACGCCCGGTCGCCGGCGACACAAACGCCCGGTCGCGGTAAGAGGATCATAGTCAGACCAACATTGCTACGACCCGTATTCGCACCGACAC | -3.75 ± 0.078 | -0.733 ± 0.15
ACATTTGTTGATACAACCATAAAATGCGCCGGCCACCCATAAATTGCGCCGGCTCACACCCATAAATTGCGCGGTACTCTGATCATAGTCAGACCAACATTGCTACGACCCGTATTCGCACCGACAC | -5.16 ± 0.24 | -3.06 ± 0.22
ACATTTGTTGATACAACCATAAAATGCGCCTTACACCCATAAATTGATAATTATCACACCCATAAATTGATATTGCCTCTGATCATAGTCAGACCAACATTGCTACGACCCGTATTCGCACCGACAC | -1.4 ± 0.083 | -1.01 ± 0.31
ACATTTGTTGATACAACCATAAAATGCTAATTACACCCATAAATTGCTAATTATCACACCCATAAATTGCTATTGCCTCTGATCATAGTCAGACCAACATTGCTACGACCCGTATTCGCACCGACAC | -1.55 ± 0.13 | -0.567 ± 0.21
ACATTTGTTGATACAACCATAAAATGGTAATTACACCCATACATTGATAATTATCACACCCAATTTAACTATAACGCTCTGATCATAGTCAGACCAACATTGCTACGACCCGTATTCGCACCGACAC | -2.58 ± 0.27 | 0.71 ± 0.05
ACATTTGTTGATACAACCATAAAATGGTAATTACACCCCTAAATTGATAATTATCACACCCAATTTAACTATAACGCTCTGATCATAGTCAGACCAACATTGCTACGACCCGTATTCGCACCGACAC | -3.07 ± 0.34 | 0.104 ± 0.26
ACATTTGTTGATACAACCATAAAATGGTAATTACACCCCTACATTGATAATTATCACACCCAATTTAACTATAACGCTCTGATCATAGTCAGACCAACATTGCTACGACCCGTATTCGCACCGACAC | -3.67 ± 0.066 | -0.856 ± 0.38
